US12268749B2, “Cell-penetrating peptides” (Oxford University Innovation Limited, priority 2018, dated 2025)

Legend:
[1] = toxicological assessment of peptide-PMO in C57BL/6 mice (urinary KIM-1, NGAL; serum BUN); assay type: in vivo, mouse; settings: 7 days after single dose of 30 mg/kg, FIG. 7
Description: Female C57BL/6 mice aged 8-10 weeks were administered a single 30 mg/kg dose of peptide-PMO in 0.9% saline by bolus intravenous tail vein injection. Urine was non-invasively collected under chilled conditions at Day 2 and Day 7 post-administration following 20 hours housing in metabolic cages (Tecniplast, UK). Serum was collected from jugular vein at Day 7 at necropsy, as was tibialis anterior, diaphragm and heart tissue.
The same procedure was followed at different single dosage amounts ranging from 2.5 mg/kg up to 50 mg/kg of peptide-PMO in 0.9% saline by intravenous tail vein injection.
Urinary levels of KIM-1 (Kidney injury molecule-1) and NGAL (Neutrophil Gelatinase-Associated Lipocalin) were quantified by ELISA (KIM-1 R&D cat #MKM100, NGAL R&D cat #MLCN20) following appropriate dilution of urine to fit standard curves. Values were normalised to urinary creatinine levels that were quantified at MRC Harwell Institute, Mary Lyon Centre, Oxfordshire, UK. Serum blood urea nitrogen levels were quantified at MRC Harwell Institute, Mary Lyon Centre, Oxfordshire, UK.
All levels were quanitifed on an AU680 Clinical Chemistry Analyser, Beckman Coulter.

exon 51 = settings: in vivo; cited from earlier work

## Ac-RXRRBRR-FQILY-RBRXR-B [Pip9b2]
[1]
  Serum blood urea nitrogen levels: elevated

## eteplirsen
Exon 51
  levels of dystrophin restoration: approximately 1 % of normal dystrophin levels
